Patent publication US20100104564A1 (published 2010)

Target: T1, human FcRn (recombinant soluble receptor, 6XHis, co-expressed with beta2 microglobulin) (human, UniProt P61769 21-119)
T1 construct: purified on nickel; also called huFcRn
Assay: Luminex assay, pH 6

Binder | FcRn binding at pH 6 (fold difference vs wild type anti-CD30) [fold vs wild type]
anti-CD30 antibody (5F11) variant E345W (antibody, Single Fc substitution in the 5F11 antibody; EU numbering, not the numbering of the UniProt entry) heavy: not shown light: DIQMTQSPTSLSASVGDRVTITCRASQGISSWLTWYQQKPEKAPKSLIYAASSLQSGVPSRFSGSGSGTDFTLTISSLQPEDFATYYCQQYDSYPITFGQGTRLEIKRTVAAPSVFIFPPSDEQLKSGTASVVCLLNNFYPREAKVQWKVDNALQSGNSQESVTEQDSKDSTYSLSSTLTLSKADYEKHKVYACEVTHQGLSSPVTKSFNRGEC | 1.3
anti-CD30 antibody (5F11) variant A378P (antibody, Single Fc substitution in the 5F11 antibody; EU numbering, not the numbering of the UniProt entry; copies: 2 + 2) heavy: not shown light: DIQMTQSPTSLSASVGDRVTITCRASQGISSWLTWYQQKPEKAPKSLIYAASSLQSGVPSRFSGSGSGTDFTLTISSLQPEDFATYYCQQYDSYPITFGQGTRLEIKRTVAAPSVFIFPPSDEQLKSGTASVVCLLNNFYPREAKVQWKVDNALQSGNSQESVTEQDSKDSTYSLSSTLTLSKADYEKHKVYACEVTHQGLSSPVTKSFNRGEC | 0.6
anti-CD30 antibody (5F11) variant D376T (antibody, Single Fc substitution in the 5F11 antibody; EU numbering, not the numbering of the UniProt entry; copies: 2 + 2) heavy: not shown light: DIQMTQSPTSLSASVGDRVTITCRASQGISSWLTWYQQKPEKAPKSLIYAASSLQSGVPSRFSGSGSGTDFTLTISSLQPEDFATYYCQQYDSYPITFGQGTRLEIKRTVAAPSVFIFPPSDEQLKSGTASVVCLLNNFYPREAKVQWKVDNALQSGNSQESVTEQDSKDSTYSLSSTLTLSKADYEKHKVYACEVTHQGLSSPVTKSFNRGEC | 1.6
anti-CD30 antibody (5F11) variant E356K (antibody, Single Fc substitution in the 5F11 antibody; EU numbering; copies: 2 + 2) heavy: not shown light: DIQMTQSPTSLSASVGDRVTITCRASQGISSWLTWYQQKPEKAPKSLIYAASSLQSGVPSRFSGSGSGTDFTLTISSLQPEDFATYYCQQYDSYPITFGQGTRLEIKRTVAAPSVFIFPPSDEQLKSGTASVVCLLNNFYPREAKVQWKVDNALQSGNSQESVTEQDSKDSTYSLSSTLTLSKADYEKHKVYACEVTHQGLSSPVTKSFNRGEC | 1.4
anti-CD30 antibody (5F11) variant F404W (antibody, Single Fc substitution in the 5F11 antibody; EU numbering, not the numbering of the UniProt entry; copies: 2 + 2) heavy: not shown light: DIQMTQSPTSLSASVGDRVTITCRASQGISSWLTWYQQKPEKAPKSLIYAASSLQSGVPSRFSGSGSGTDFTLTISSLQPEDFATYYCQQYDSYPITFGQGTRLEIKRTVAAPSVFIFPPSDEQLKSGTASVVCLLNNFYPREAKVQWKVDNALQSGNSQESVTEQDSKDSTYSLSSTLTLSKADYEKHKVYACEVTHQGLSSPVTKSFNRGEC | 1.7
anti-CD30 antibody (5F11) variant G446W (antibody, Single Fc substitution in the 5F11 antibody; EU numbering, not the numbering of the UniProt entry; copies: 2 + 2) heavy: not shown light: DIQMTQSPTSLSASVGDRVTITCRASQGISSWLTWYQQKPEKAPKSLIYAASSLQSGVPSRFSGSGSGTDFTLTISSLQPEDFATYYCQQYDSYPITFGQGTRLEIKRTVAAPSVFIFPPSDEQLKSGTASVVCLLNNFYPREAKVQWKVDNALQSGNSQESVTEQDSKDSTYSLSSTLTLSKADYEKHKVYACEVTHQGLSSPVTKSFNRGEC | 1.1
anti-CD30 antibody (5F11) variant P247I (antibody, Single Fc substitution in the 5F11 antibody; EU numbering, not the numbering of the UniProt entry; copies: 2 + 2) heavy: not shown light: DIQMTQSPTSLSASVGDRVTITCRASQGISSWLTWYQQKPEKAPKSLIYAASSLQSGVPSRFSGSGSGTDFTLTISSLQPEDFATYYCQQYDSYPITFGQGTRLEIKRTVAAPSVFIFPPSDEQLKSGTASVVCLLNNFYPREAKVQWKVDNALQSGNSQESVTEQDSKDSTYSLSSTLTLSKADYEKHKVYACEVTHQGLSSPVTKSFNRGEC | 1.1

Further lines, results first:

FcRn binding at pH 6 (fold difference vs wild type anti-CD30) [fold vs wild type] | Binder
1.4 | anti-CD30 antibody (5F11) variant P396I (antibody, Single Fc substitution in the 5F11 antibody; EU numbering, not the numbering of the UniProt entry; copies: 2 + 2) heavy: not shown light: DIQMTQSPTSLSASVGDRVTITCRASQGISSWLTWYQQKPEKAPKSLIYAASSLQSGVPSRFSGSGSGTDFTLTISSLQPEDFATYYCQQYDSYPITFGQGTRLEIKRTVAAPSVFIFPPSDEQLKSGTASVVCLLNNFYPREAKVQWKVDNALQSGNSQESVTEQDSKDSTYSLSSTLTLSKADYEKHKVYACEVTHQGLSSPVTKSFNRGEC
0.2 | anti-CD30 antibody (5F11) variant S254W (antibody, Single Fc substitution in the 5F11 antibody; EU numbering, not the numbering of the UniProt entry; copies: 2 + 2) heavy: not shown light: DIQMTQSPTSLSASVGDRVTITCRASQGISSWLTWYQQKPEKAPKSLIYAASSLQSGVPSRFSGSGSGTDFTLTISSLQPEDFATYYCQQYDSYPITFGQGTRLEIKRTVAAPSVFIFPPSDEQLKSGTASVVCLLNNFYPREAKVQWKVDNALQSGNSQESVTEQDSKDSTYSLSSTLTLSKADYEKHKVYACEVTHQGLSSPVTKSFNRGEC
1.3 | anti-CD30 antibody (5F11) variant S354R (antibody, Single Fc substitution in the 5F11 antibody; EU numbering, not the numbering of the UniProt entry; copies: 2 + 2) heavy: not shown light: DIQMTQSPTSLSASVGDRVTITCRASQGISSWLTWYQQKPEKAPKSLIYAASSLQSGVPSRFSGSGSGTDFTLTISSLQPEDFATYYCQQYDSYPITFGQGTRLEIKRTVAAPSVFIFPPSDEQLKSGTASVVCLLNNFYPREAKVQWKVDNALQSGNSQESVTEQDSKDSTYSLSSTLTLSKADYEKHKVYACEVTHQGLSSPVTKSFNRGEC
0.6 | anti-CD30 antibody (5F11) variant S426W (antibody, Single Fc substitution in the 5F11 antibody; EU numbering, not the numbering of the UniProt entry; copies: 2 + 2) heavy: not shown light: DIQMTQSPTSLSASVGDRVTITCRASQGISSWLTWYQQKPEKAPKSLIYAASSLQSGVPSRFSGSGSGTDFTLTISSLQPEDFATYYCQQYDSYPITFGQGTRLEIKRTVAAPSVFIFPPSDEQLKSGTASVVCLLNNFYPREAKVQWKVDNALQSGNSQESVTEQDSKDSTYSLSSTLTLSKADYEKHKVYACEVTHQGLSSPVTKSFNRGEC
